How the values were obtained:
HT1080 cells = test: Co-immunofluorescence/ATAC-see analysis; format: cell-based, human
Experimental: Co-immunofluorescence/ATAC-see analysis. ATAC-see was performed similarly as previously described with slight modifications (Chen et al., Nat. Methods 13:1013-1020, 2016). Enzyme and transposon DNA were mixed at a 1:1.25 enzyme:MEDS-A/B-AF647 molar ratio and incubated at room temperature for 1 hour. Adherent cells were grown on glass coverslips (Fisher Scientific, 12-540A) until 80-90% confluent, washed with 1×PBS, fixed with 1% formaldehyde (Electron Microscopy Services) in 1×PBS for 10 minutes, and washed twice with ice-cold 1×PBS. Suspension cells were washed and resuspended with 1×PBS. 50,000 cells were added to poly-lysine slides and incubated at room temperature for 1 hour in a humidified chamber. An equal volume of 2% formaldehyde was added and incubated for 10 minutes, whereupon slides were washed twice with ice-cold 1×PBS. Immobilized cells were lysed by incubation with LB1 for 3 minutes followed by LB2 for 10 minutes at room temperature. Cells were then subject to tagmentation (20% dimethylformamide, 10 mM MgCl2, 20 mM Tris-HCl pH 7.5, 33% 1×PBS, 0.01% digitonin, 0.1% Tween-20, and either 80 pmol enzyme equivalent of enzyme:DNA complex in a total volume of 100 μL for adherent cells or 10 pmol enzyme equivalent of enzyme:DNA complex in a total volume of 50 μL for suspension cells) for 30 minutes at 37° C. in a humidified chamber. Subsequently, cells were washed with 50 mM EDTA and 0.01% SDS in 1×PBS three times for 15 minute each at 55° C., lysed for 10 minutes with 0.5% Triton X-100 in 1×PBS at room temperature, and blocked with 1% BSA and 10% goat serum in PBS-T for 1 hour in a humidified chamber. Primary antibody was added to slides in 1% BSA/PBS-T and incubated at 4° C. overnight; slides were then washed and subjected to secondary antibody staining for 1 hour. Slides were washed with PBS-T three times for 15 minutes each, stained with DAPI (Sigma, 1 μg/mL) for 1 minute, washed with PBS for 10 minutes, and mounted with Fluorescence Mounting Medium (Dako). Confocal microscopy images were taken with an LSM 880 Axio Imager 2 at 63× magnification (Zeiss). Images were processed with Fiji/ImageJ v2.0.0.
Primary antibodies used were anti-RNA polymerase II CTD repeat YSPTSPS (phospho S2) (rabbit, Abcam ab5095, 1:500), anti-H3K27Ac (rabbit, Abcam ab4729, 1:500), anti-H3K9me3 (rabbit, Abcam ab8898, 1:500), anti-CCDCl2 (rabbit, Atlas Antibodies HPA060530, 1:200), anti-SNRPA (mouse, 3F9-1F7, Sigma-Aldrich WH0006626M1, 1:100). […]
Quantitative image analyses were performed with CellProfiler v3.1.5. […] Pearson correlation coefficients were determined by comparing ATAC-see pixel intensities with corresponding immunofluorescence intensity values within each ROI to assess the nucleus-to-nucleus variation in colocalization. […]

HEK293T nuclei = test: iDAPT protein labeling, western blot of labeled nuclear lysates; format: biochemical, human; conditions: extracted HEK293T nuclei
Experimental: (§1) DNA and protein tagging by iDAPT. All iDAPT proteomic labeling assays were performed as described below unless indicated otherwise. 2.5 μmol MEDS-A/B, 2 μmol enzyme, and 1 μmol hemin chloride per channel were incubated at room temperature for 1 hour. 1e7 cells per sample were washed (500×g, 5 minutes, 4° C.), lysed and triturated in 100 μL LB1 (10 mM Tris-HCl pH 7.5, 10 mM NaCl, 3 mM MgCl2, 1% BSA, 0.01% digitonin, 0.1% Tween-20, 0.1% NP-40, and 1× cOmplete EDTA-free protease inhibitor cocktail [Roche]) for 3 minutes, and subsequently supplemented with an additional 1 mL of LB2 (10 mM Tris-HCl pH 7.5, 10 mM NaCl, 3 mM MgCl2, 1% BSA, 0.1% Tween-20, and 1× protease inhibitor). Nuclei were pelleted (500×g, 10 minutes, 4° C.), resuspended with tagmentation reaction mixture (20% dimethylformamide, 10 mM MgCl2, 20 mM Tris-HCl pH 7.5, 33% 1×PBS, 1% BSA, 0.01% digitonin, 0.1% Tween-20, 500 μM biotin-phenol, 1× protease inhibitor, and 2 pmol enzyme equivalent of enzyme:DNA:heme complex in a total volume of 500 μL), and incubated at 37° C. for 30 minutes with agitation on a thermomixer (1,000 rpm). 5 μL of tagmentation mix was saved for quality assessment as described above for ATAC-seq/iDAPT-seq sample preparation. The remaining nuclear suspension was then washed 2× with 1×PBS supplemented with 500 μM biotin-phenol, 1% BSA, 0.1% Tween-20, and 1× protease inhibitor (3000×g, 5 minutes, 4° C.) and labeled with 1 mM hydrogen peroxide and 500 μM biotin-phenol for 1 minute in 1×PBS with 1× protease inhibitor in a volume of 500 μL. Peroxidation reactions were quenched with 500 μL 2× quenching buffer (10 mM Trolox, 20 mM sodium ascorbate, 20 mM NaN3, and 1× protease inhibitor in 1×PBS). Labeled nuclei were then pelleted, washed with 1× quenching buffer, resuspended in 500 μL RIPA containing protease inhibitors, and frozen at −80° C. Lysates were thawed on ice, sonicated via a Sonic Dismembrator 100 (Fisher Scientific, setting 3, 15 seconds, 4 pulses), and incubated on ice for 30 minutes after the addition of 1 μL benzonase (EMD Millipore). Lysates were clarified by centrifugation (15,000×g, 20 minutes, 4° C.), quantified via the detergent-compatible Bradford assay (Thermo Fisher Scientific), and subjected to either Western blotting or quantitative mass spectrometry analyses as described below. For NB4 cell analysis, an additional endogenous peroxidase blocking step was added after nuclear extraction and before tagmentation: nuclei were resuspended in 500 μL 1×PBS containing 1% BSA, 0.03% hydrogen peroxide, and 0.1% NaN3 and incubated on ice for 30 minutes. Nuclei were pelleted and washed 4× with 1×PBS/1% BSA (3000×g, 5 minutes, 4° C.). Residual hydrogen peroxide was monitored by colorimetric assessment of supernatant via Quantofix peroxides test stick (Sigma).
(§2) Western blotting analysis. Whole cell or nuclear lysates were generated by resuspending cells or nuclei in RIPA (Boston BioProducts) supplemented with 1× cOmplete EDTA-free protease inhibitor cocktail (Roche). […] Lysates were clarified by centrifugation (15,000×g, 20 minutes, 4° C.) and their concentrations quantified via the detergent-compatible Bradford assay (Thermo Fisher Scientific). […] Membranes were blocked with 3% milk in PBS-T and incubated overnight with primary antibody and subsequently with secondary antibody after brief washing with PBS-T. Chemiluminescence was determined by applying ECL Western Blotting detection reagent (GE Healthcare) to membranes and imaging on an Amersham Imager 600 (GE Healthcare). […]

GM12878 nuclei = test: Peroxidase-mediated biotin labeling after transposition, western blot; format: biochemical, human
Experimental: Western blot. Whole cell lysate was generated by resuspending cells washed with 1×PBS in RIPA (Boston BioProducts) supplemented with 1× complete EDTA-free protease inhibitor cocktail (Roche). Cells were subject to sonication via a Sonic Dismembrator 100 (Fisher Scientific) at setting 2, with 3 pulses of 15 seconds on/off on ice. Lysates were clarified by centrifugation (15,000×g, 30 minutes, 4° C.) and their concentrations quantified with detergent-compatible Bradford assay (Thermo Fisher Scientific). All Western blots were run on NuPAGE 4-12% Bis-Tris protein gels (Thermo Fisher Scientific) and transferred to […] nitrocellulose membranes (GE Healthcare). Membranes were stained with Ponceau S, blocked with 3% milk in PBS-T, and incubated overnight with primary antibody and subsequently with secondary antibody after brief washing with PBS-T. Chemiluminescence was determined by applying ECL Western Blotting detection reagent (GE Healthcare) to membranes and imaging on an Amersham Imager 600 (GE Healthcare). Membranes were stripped with Restore PLUS Stripping Buffer (Thermo Fisher Scientific); streptavidin-HRP was inactivated with 15% hydrogen peroxide. […]

K562 nuclei = test: iDAPT protein labeling, western blot of labeled nuclear lysates; format: biochemical, human
Experimental: as §1, §2

Molecule | ATAC-see correlation with H3K9me3 immunofluorescence (HT1080 cells; marker of transcriptionally inactive chromatin) | ATAC-see correlation with H3K27Ac and RNAPII S2P immunofluorescence signal (HT1080 cells; markers of transcriptionally active chromatin) | peroxidase-dependent biotin signal (HEK293T nuclei) | biotinylation signal (streptavidin) (GM12878 nuclei) | biotin labeling (K562 nuclei)
Tn5-F: FLAG-tagged Tn5 transposase purified in-house, negative control probe; amino acid SEQ ID NO: 19 (protein, FLAG tag) MITSALHRAADWAKSVFSSAALGDPRRTARLVNVAAQLAKYSGKSITISSEGSKAMQEGAYRFIRNPNVSAEAIRKAGAMQTVKLAQEFPELLAIEDTTSLSYRHQVAEELGKLGSIQDKSRGWWVHSVLLLEATTFRTVGLLHQEWWMRPDDPADADEKESGKWLAAAATSRLRMGSMMSNVIAVCDREADIHAYLQDKLAHNERFVVRSKHPRKDVESGLYLYDHLKNQPELGGYQISIPQKGVVDKRGKRKNRPARKASLSLRSGRITLKQGNITLNAVLAEEINPPKGETPLKWLLLTSEPVESLAQALRVIDIYTHRWRIEEFHKAWKTGAGAERQRMEEPDNLERMVSILSFVAVRLLQLRESFTPPQALRAQGLLKEAEHVESQSAETVLTPDECQLLGYLDKGKRKRKEKAGSLQWAYMAIARLGGFMDSKRTGIASWGALWEGWEALQSKLDGFLAAKDLMAQGIKIDYKDDDDK | similarly poor correlations | similarly positive correlations | low signal |  | 
TP5: Tn5 transposase-GSGAGA linker-APEX2 peroxidase fusion, C-terminal FLAG; amino acid SEQ ID NO: 31 (protein, C-terminal FLAG) MITSALHRAADWAKSVFSSAALGDPRRTARLVNVAAQLAKYSGKSITISSEGSKAMQEGAYRFIRNPNVSAEAIRKAGAMQTVKLAQEFPELLAIEDTTSLSYRHQVAEELGKLGSIQDKSRGWWVHSVLLLEATTFRTVGLLHQEWWMRPDDPADADEKESGKWLAAAATSRLRMGSMMSNVIAVCDREADIHAYLQDKLAHNERFVVRSKHPRKDVESGLYLYDHLKNQPELGGYQISIPQKGVVDKRGKRKNRPARKASLSLRSGRITLKQGNITLNAVLAEEINPPKGETPLKWLLLTSEPVESLAQALRVIDIYTHRWRIEEFHKAWKTGAGAERQRMEEPDNLERMVSILSFVAVRLLQLRESFTPPQALRAQGLLKEAEHVESQSAETVLTPDECQLLGYLDKGKRKRKEKAGSLQWAYMAIARLGGFMDSKRTGIASWGALWEGWEALQSKLDGFLAAKDLMAQGIKIGSGAGAGKSYPTVSADYQDAVEKAKKKLRGFIAEKRCAPLMLRLAFHSAGTFDKGTKTGGPFGTIKHPAELAHSANNGLDIAVRLLEPLKAEFPILSYADFYQLAGVVAVEVTGGPKVPFHPGREDKPEPPPEGRLPDPTKGSDHLRDVFGKAMGLTDQDIVALSGGHTIGAAHKERSGFEGPWTSNPLIFDNSYFTELLSGEKEGLLQLPSDKALLSDPVFRPLVDKYAADEDAFFADYAEAHQKLSELGFADADYKDDDDK |  |  |  | highest signals | highest levels of labeling
